The record followed here is doi:10.1101/2025.01.07.631770, “Backbone and Sidechain ^1H, ^15N and ^13C Resonance Assignments of a Multidrug Efflux Membrane Protein using Solution and Solid-State NMR” (bioRxiv, 2025).

The series deals with the molecule itself. The experiment in a line: solid-state NMR (13C-detected MAS, 2D NCA; two sets of peaks); S64V-EmrE in POPC proteoliposomes, 25:1 lipid/EmrE monomer, pH 5.8; 1.1 GHz, MAS 25 kHz, sample temperature 10 ± 5 °C.

B1: S64V-EmrE (natural protein, E. coli, UniProt P23895 1-110, looked up)
chain: MNPYIYLGGAILAEVIGTTLMKFSEGFTRLWPSVGTIICYCASFWLLAQTLAYIPTGIAYAIWVGVGIVLISLLSWGFFGQRLDLPAIIGMMLICAGVLIINLLSRSTPH
notes: also called EmrE mutant S64V
Consider B1, for which the binding result is recorded as “binds”.
